One may read the EC50 as the concentration needed to bring the measured effect to its halfway point. Low readings indicate higher potency in that assay, high ones lower potency in that assay.

Experimental findings from US20220025055A1 (Boehringer Ingelheim, published 2022) are described below.

For one assay, the target named is T1, mouse FLT3 (mouse, UniProt Q00342 28-544, limits assumed).
T1 construct: Named only in one sentence; no assay is described
T1 sequence (looked up): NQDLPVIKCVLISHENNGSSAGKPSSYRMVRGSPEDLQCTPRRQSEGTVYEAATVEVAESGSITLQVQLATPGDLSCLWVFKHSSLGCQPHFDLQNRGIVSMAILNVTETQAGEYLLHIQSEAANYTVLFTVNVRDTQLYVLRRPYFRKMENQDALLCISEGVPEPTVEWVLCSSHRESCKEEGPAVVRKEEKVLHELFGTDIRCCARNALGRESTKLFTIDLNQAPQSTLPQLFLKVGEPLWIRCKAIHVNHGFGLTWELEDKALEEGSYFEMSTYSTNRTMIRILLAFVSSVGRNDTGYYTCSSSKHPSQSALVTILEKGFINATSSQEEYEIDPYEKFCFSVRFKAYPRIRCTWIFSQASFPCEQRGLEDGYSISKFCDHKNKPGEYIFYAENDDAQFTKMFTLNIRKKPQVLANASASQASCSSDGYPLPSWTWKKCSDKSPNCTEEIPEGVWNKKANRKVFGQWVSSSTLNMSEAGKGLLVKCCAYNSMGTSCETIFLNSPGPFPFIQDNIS
The assay can be described thus: not described.

Assay [1] addresses T2, human FLT3 (FMS-like tyrosine kinase 3) (human, UniProt P36888 27-993).
T2 sequence (looked up): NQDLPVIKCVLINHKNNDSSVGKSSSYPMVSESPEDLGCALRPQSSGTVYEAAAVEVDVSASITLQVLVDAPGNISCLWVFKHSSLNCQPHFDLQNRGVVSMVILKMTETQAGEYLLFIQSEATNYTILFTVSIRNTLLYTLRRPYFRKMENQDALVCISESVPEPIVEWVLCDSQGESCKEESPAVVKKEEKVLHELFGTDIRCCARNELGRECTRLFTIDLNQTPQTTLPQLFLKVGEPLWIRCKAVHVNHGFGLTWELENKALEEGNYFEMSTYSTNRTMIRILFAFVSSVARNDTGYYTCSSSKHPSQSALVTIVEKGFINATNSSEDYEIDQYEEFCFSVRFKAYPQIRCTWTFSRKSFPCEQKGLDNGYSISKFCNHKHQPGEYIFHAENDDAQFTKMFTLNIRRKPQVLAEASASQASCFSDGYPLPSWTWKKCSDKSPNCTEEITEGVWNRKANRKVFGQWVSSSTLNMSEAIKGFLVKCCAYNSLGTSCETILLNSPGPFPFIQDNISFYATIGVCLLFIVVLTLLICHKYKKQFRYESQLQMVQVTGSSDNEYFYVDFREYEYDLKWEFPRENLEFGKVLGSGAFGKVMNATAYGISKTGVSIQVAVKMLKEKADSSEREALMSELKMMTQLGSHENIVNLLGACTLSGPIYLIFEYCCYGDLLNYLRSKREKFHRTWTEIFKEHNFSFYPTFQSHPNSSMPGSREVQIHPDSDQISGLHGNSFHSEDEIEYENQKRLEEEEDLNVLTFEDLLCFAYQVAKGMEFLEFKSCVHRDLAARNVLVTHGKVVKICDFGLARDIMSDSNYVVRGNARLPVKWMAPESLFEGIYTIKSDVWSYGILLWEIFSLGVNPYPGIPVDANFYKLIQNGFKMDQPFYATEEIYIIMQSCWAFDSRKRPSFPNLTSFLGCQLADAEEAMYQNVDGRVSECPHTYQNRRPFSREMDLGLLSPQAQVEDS
The assay can be described thus: cell-based or functional assay.

Assay [2] deals with T3, cynomolgus FLT3 (cynomolgus, UniProt A0A2K5VQ48 27-993).
T3 sequence: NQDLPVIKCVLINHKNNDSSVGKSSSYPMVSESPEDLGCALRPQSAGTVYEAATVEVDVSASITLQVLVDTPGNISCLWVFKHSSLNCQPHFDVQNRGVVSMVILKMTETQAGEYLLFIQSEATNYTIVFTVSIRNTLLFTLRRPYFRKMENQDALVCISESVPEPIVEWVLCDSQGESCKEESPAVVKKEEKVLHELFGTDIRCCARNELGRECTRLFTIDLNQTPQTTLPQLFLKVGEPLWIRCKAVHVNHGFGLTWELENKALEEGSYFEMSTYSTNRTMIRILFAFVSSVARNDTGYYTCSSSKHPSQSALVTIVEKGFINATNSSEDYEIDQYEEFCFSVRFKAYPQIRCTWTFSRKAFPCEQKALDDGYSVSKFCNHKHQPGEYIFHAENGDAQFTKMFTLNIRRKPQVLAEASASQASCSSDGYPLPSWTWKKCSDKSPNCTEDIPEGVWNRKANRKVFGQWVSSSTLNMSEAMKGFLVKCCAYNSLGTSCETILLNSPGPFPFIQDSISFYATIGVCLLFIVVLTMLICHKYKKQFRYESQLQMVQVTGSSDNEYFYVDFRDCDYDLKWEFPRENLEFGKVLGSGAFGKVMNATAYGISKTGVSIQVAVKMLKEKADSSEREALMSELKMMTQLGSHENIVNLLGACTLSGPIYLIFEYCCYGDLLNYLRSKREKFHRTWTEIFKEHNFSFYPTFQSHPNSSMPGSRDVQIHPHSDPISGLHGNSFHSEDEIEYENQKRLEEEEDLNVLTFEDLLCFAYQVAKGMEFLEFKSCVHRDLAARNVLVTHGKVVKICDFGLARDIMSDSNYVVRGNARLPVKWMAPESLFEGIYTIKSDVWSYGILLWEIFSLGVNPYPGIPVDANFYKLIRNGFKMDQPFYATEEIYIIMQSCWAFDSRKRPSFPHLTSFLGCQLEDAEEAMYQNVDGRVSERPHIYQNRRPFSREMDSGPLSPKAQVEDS
Nature of the assay: cell-based or functional assay.

The target in assay [3] is T3, cynomolgus FLT3. The assay can be described thus: flow cytometry on stably expressing cyno FLT3-STAT5-Luciferase cells, AF488 anti-human IgG (H+L) detection. How it is done:
(§1) Since NB1113 binds to human FLT3, but not mouse FLT3, the binding and functional activity of NB1113 was evaluated in both human and cynomolgus (cyno) FLT3-expressing systems. Stably expressing human and cyno FLT3-STAT5-Luciferase cells were used for both binding and functional assays. The binding of NB1113 to human or cyno FLT3 was assessed by flow cytometry using different concentrations of NB1113 in PBS+2% FBS, followed by detection using AF488 anti-human IgG (H+L) secondary antibody.
A general note: Flow cytometry measures light scatter and fluorescence of single cells or particles in a stream.

Assay [4] addresses T2, human FLT3 (FMS-like tyrosine kinase 3). The assay can be described thus: flow cytometry on stably expressing human FLT3-STAT5-Luciferase cells, AF488 anti-human IgG (H+L) detection. The protocol: as §1

B1: NB1113 (antibody, V domains shown)
VH: EVQLLESGGGLVQPGGSLRLSCAPSGFTFSNYGMAWVRQAPGKGLEWVSSIHSGGGDTYYRDSVKGRFTISRDNSKNTLYLQMNSLRAEDTAVYYCARGRTPTGYYFDHWGQGTMVTVSS
VL: DIQMTQSPSSLSASVGDRVTITCRASEGIHSGLAWYQQKPGKVPKLLIYNANSLHSGVPSRFSGSGSGTDFTLTISSLQPEDVATYFCQQYYDYPLTFGQGTKLEIK
notes: Light chain variant (N31S in CDR-L1) of humanized NB1063 (VH1 x VL1); The constant regions are not restated for the humanized antibodies; the parent chimera NB1016 is human IgG4PAA (S228P, F234A, L235A) / human kappa; also called NB11113; N31S light chain variant of NB1063
For B1, the binding result in the assay with mouse FLT3 is recorded as “no binding”. Further, in assay [1], the “EC50 in human FLT3-STAT5-Luciferase reporter assay” value was 1.1 nM and the “EC50 of expansion of HLA-DR+CD1c+ cells from primary human bone marrow, 12 days” value was 0.113 nM. For the same molecule, in the assay with cynomolgus FLT3 [2], the “EC50 in cyno FLT3-STAT5-Luciferase reporter assay” value came to 1.6 nM. The molecule further had a concentration giving a half-maximal response (EC50) in the assay with cynomolgus FLT3 [3] of 0.9 nM. The half-maximal effective concentration (EC50) in assay [4] is 1.36 nM.
